Source: the MegaScale stability set (Tsuboyama et al. 2023)

B1: HEEH_KT_rd6_0790 (parent)
chain: SEEEEEEWRRAKERGEEIIILGILWKPNDEEAERRIKEALRRV
B2: r16_88_TrROS_Hall (parent)
chain: EVIELKIKFKTPEQREKLKEIAKKLNAEVVEEKDGEVIIRFKTPEQAERALKEAEKLGAEVEL

Variants of: B1
Assay: folding stability dG (cDNA display proteolysis); higher = more stable
Conditions: PBS, room temperature

Variant | folding stability dG [kcal/mol]
E38A | 1.94
E38D | 2.06
E38F | 1.03
E38G | 1.46
E38H | 1.39
E38I | 1.91
E38K | 1.34
E38L | 1.39
E38M | 1.47
E38N | 1.61
E38P | 1.11
E38Q | 1.93
E38R | 1.52
E38S | 1.67
E38T | 1.41
E38V | 1.46
E38W | 1.02
E38Y | 0.909
A39C | 2.06
A39D | 0.764
A39E | 1.53
A39F | 1.69
A39G | 1.32

Variant | folding stability dG [kcal/mol]
A39H | 1.38
A39I | 1.81
A39K | 1.79
A39L | 2.06
A39M | 2.1
A39N | 1.01
A39P | 0.322
A39Q | 1.6
A39R | 1.88
A39S | 1.26
A39T | 1.31
A39V | 1.6
A39W | 1.7
A39Y | 1.56
L40A | 1.12
L40C | 1.55
L40D | 0.532
L40E | 0.814
L40F | 1.78
L40G | 0.586
L40H | 1.26
L40I | 1.97
L40K | 1.06

Variant | folding stability dG [kcal/mol]
L40M | 1.76
L40N | 0.57
L40P | 0.583
L40Q | 1
L40R | 1.2
L40S | 0.788
L40T | 0.781
L40V | 1.25
L40W | 1.45
L40Y | 1.1
R41A | 2.07
R41C | 2.43
R41D | 1.79
R41E | 1.89
R41F | 1.76
R41G | 1.74
R41H | 1.88
R41I | 1.76
R41K | 2.06
R41L | 2.07
R41M | 1.9
R41N | 1.97
R41P | 0.888

Variant | folding stability dG [kcal/mol]
R41Q | 1.92
R41S | 1.94
R41T | 1.81
R41V | 1.75
R41W | 1.67
R41Y | 1.74
R42A | 2.11
R42C | 1.95
R42D | 1.56
R42E | 1.75
R42F | 1.77
R42G | 1.88
R42H | 1.79
R42I | 2
R42K | 2.14
R42L | 2.09
R42M | 1.98
R42N | 1.84
R42P | 1.33
R42Q | 2.09
R42S | 1.92
R42T | 1.83
R42V | 1.95

Variant | folding stability dG [kcal/mol]
R42W | 1.74
R42Y | 1.77
V43A | 2.38
V43C | 2.36
V43D | 1.69
V43E | 2.08
V43F | 2.5
V43G | 1.84
V43H | 2.45
V43I | 2.31
V43K | 2.59
V43L | 2.79
V43M | 2.48
V43N | 1.86
V43P | 1.84
V43Q | 2.26
V43R | 2.75
V43S | 2.21
V43T | 1.88
V43W | 2.45
V43Y | 2.38

Variants of: B2
Assay: as above
Conditions: PBS, room temperature

Variant | folding stability dG [kcal/mol]
E1A | 4.45
E1C | 4.27
E1D | 4.2
E1F | 4.33
E1G | 4.57
E1H | 4.08
E1I | 4.29
E1K | 4
E1L | 4.31
E1M | 4.3
E1N | 4.33
E1P | 4.22
E1Q | 4.25
E1R | 3.94
E1S | 4.32
E1T | 4.26
E1V | 4.06
E1W | 4.18
E1Y | 4.34
V2A | 4.3
V2C | 4.51
V2D | 4.1
V2E | 4.13
V2F | 4.68
V2G | 4.48

Variant | folding stability dG [kcal/mol]
V2H | 4.34
V2I | 4.15
V2K | 4.33
V2L | 4.27
V2M | 4.45
V2N | 4.22
V2P | 4.16
V2Q | 4.45
V2R | 4.21
V2S | 4.13
V2T | 4.19
V2W | 4.56
V2Y | 4.53
I3A | 4.54
I3C | 4.46
I3D | 4.52
I3E | 4.3
I3F | 4.97
I3G | 4.47
I3H | 4.7
I3K | 4.76
I3L | 4.63
I3M | 4.63
I3N | 4.76
I3P | 4.46

Variant | folding stability dG [kcal/mol]
I3Q | 4.76
I3R | 4.61
I3S | 4.71
I3T | 4.67
I3V | 4.58
I3W | 4.71
I3Y | 4.7
E4A | 4.69
E4C | 4.76
E4D | 4.4
E4F | 4.76
E4G | 4.3
E4H | 4.42
E4I | 4.54
E4K | 4.51
E4L | 4.56
E4M | 4.72
E4N | 4.35
E4P | 4.4
E4Q | 4.79
E4R | 4.58
E4S | 4.54
E4V | 4.58
E4W | 4.66
E4Y | 4.64

Variant | folding stability dG [kcal/mol]
L5A | 4.37
L5C | 4.29
L5D | 2
L5E | 3.72
L5F | 4.91
L5G | 4.02
L5H | 4.34
L5I | 4.26
L5K | 4.38
L5M | 4.49
L5N | 3.85
L5P | 2.55
L5Q | 4.28
L5R | 4.4
L5S | 3.94
L5T | 4.04
L5V | 4.29
K6A | 4.22
K6C | 4.34
K6D | 3.67
K6E | 3.75
K6F | 4.76
K6G | 4.02
K6H | 4.48
K6I | 4.47

Variant | folding stability dG [kcal/mol]
K6L | 4.32
K6M | 4.43
K6N | 4.39
K6P | 3.96
K6Q | 4.17
K6R | 4.73
K6S | 4.26
K6T | 4.34
K6V | 4.37
K6W | 4.94
K6Y | 4.77
I7A | 4.69
I7C | 4.31
I7D | 1.65
I7E | 2.11
I7F | 4.53
I7G | 4.36
I7H | 3.18
I7K | 2.77
I7L | 4.64
I7M | 4.39
I7N | 2.98
I7P | 2.3
I7Q | 3.21
I7R | 3.04

Variant | folding stability dG [kcal/mol]
I7S | 3.87
I7T | 4.09
I7V | 4.44
I7W | 4.97
I7Y | 4.82
K8A | 4.09
K8C | 4.15
K8D | 3.72
K8E | 3.87
K8F | 4.53
K8G | 4.05
K8H | 4.25
K8I | 4.12
K8L | 4.31
K8M | 4.48
K8N | 4.08
K8P | 4.21
K8Q | 4.14
K8R | 4.62
K8S | 4.1
K8T | 4.33
K8V | 4.34
K8W | 4.83
K8Y | 4.61
F9A | 4.06

Variant | folding stability dG [kcal/mol]
F9C | 4.19
F9D | 3.45
F9E | 2.48
F9G | 3.9
F9H | 4.19
F9I | 3.96
F9K | 2.75
F9L | 4
F9M | 3.98
F9N | 3.54
F9P | 4.02
F9Q | 3.28
F9R | 2.76
F9S | 3.85
F9T | 3.73
F9V | 4.27
F9W | 4.61
F9Y | 4.33
K10A | 4.22
K10C | 4.2
K10D | 4.11
K10E | 4
K10F | 4.18
K10G | 4.21
K10H | 4.28

Variant | folding stability dG [kcal/mol]
K10I | 4.09
K10L | 4.29
K10M | 4.19
K10N | 4.22
K10P | 4.2
K10Q | 4.34
K10R | 4.47
K10S | 4.16
K10T | 4.38
K10V | 4.2
K10W | 4.3
K10Y | 4.5
T11A | 4.39
T11C | 4.58
T11D | 4.03
T11E | 4.14
T11F | 4.54
T11G | 4.26
T11H | 4.42
T11I | 4.59
T11K | 4.23
T11L | 4.75
T11M | 4.62
T11N | 4.26
T11P | 3.48

Variant | folding stability dG [kcal/mol]
T11Q | 4.33
T11R | 4.37
T11S | 4.44
T11V | 4.48
T11W | 4.6
T11Y | 4.02
P12A | 4.39
P12C | 4.54
P12D | 4.2
P12E | 4.46
P12F | 4.85
P12G | 4.38
P12H | 4.59
P12I | 4.47
P12K | 4.4
P12L | 4.31
P12M | 4.53
P12N | 4.23
P12Q | 4.3
P12R | 4.73
P12S | 4.44
